Here are results for ten molecules from patent US20040005636A1, “Method for obtaining the binding affinities of a peptide library to a protein” (priority 2002, published 2004).

Ends that are not written are not given here. Peptide text beside a SMILES is read from it. * marks the point of attachment. Fluorescein(5-NHCOCH2) = O=C(C*)Nc1ccc2c(c1)C(=O)OC21c2ccc(O)cc2Oc2cc(O)ccc21

To fix the notation:
T1: hERα-LBD (ligand binding domain of estrogen receptor α) (human, UniProt P03372 297-554)
T1 construct: Assayed with estradiol, diethylstilbestrol, genistein or tamoxifen present; the ligand is named under assay in each row
T1 sequence (looked up): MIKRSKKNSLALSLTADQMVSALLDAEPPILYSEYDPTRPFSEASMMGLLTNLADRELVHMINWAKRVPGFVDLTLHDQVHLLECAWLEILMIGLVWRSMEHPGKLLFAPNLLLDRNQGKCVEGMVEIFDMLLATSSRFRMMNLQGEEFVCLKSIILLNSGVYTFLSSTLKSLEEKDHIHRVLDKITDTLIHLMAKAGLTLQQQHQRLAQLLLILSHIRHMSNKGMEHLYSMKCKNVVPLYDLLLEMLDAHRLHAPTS

T2: hTRβ-LBD (ligand binding domain of thyroid hormone receptor β) (human, UniProt P10828 202-461)
T2 construct: Assayed with the small-molecule ligand T3 present
T2 sequence (looked up): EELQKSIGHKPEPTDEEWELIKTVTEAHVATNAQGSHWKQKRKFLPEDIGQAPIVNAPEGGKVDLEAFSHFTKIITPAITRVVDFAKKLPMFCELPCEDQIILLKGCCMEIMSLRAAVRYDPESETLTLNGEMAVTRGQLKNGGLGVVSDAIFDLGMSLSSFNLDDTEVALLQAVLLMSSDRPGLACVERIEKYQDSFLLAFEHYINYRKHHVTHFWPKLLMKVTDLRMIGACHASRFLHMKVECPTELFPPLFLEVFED

T3: hERα-LBD (Homo sapiens, UniProt P03372)
T3 construct: The receptor ERα-LBD or TRβ-LBD, expressed using reported protocols; made in house
T3 sequence (P03372 311-547 limits assumed): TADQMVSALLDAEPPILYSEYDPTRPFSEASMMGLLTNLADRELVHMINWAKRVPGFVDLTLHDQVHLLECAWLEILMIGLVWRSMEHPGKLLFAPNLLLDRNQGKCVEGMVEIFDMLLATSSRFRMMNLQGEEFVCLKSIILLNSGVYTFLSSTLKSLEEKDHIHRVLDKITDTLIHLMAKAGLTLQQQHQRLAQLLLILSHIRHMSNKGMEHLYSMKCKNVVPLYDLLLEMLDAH

B1: SRC3-2 coregulator peptide (peptide)
peptide: C(5‑iodoacetamidofluorescein)LQEKHRILHKLLQNGNSPA
B2: SRC1-2 coregulator peptide (peptide)
peptide: C(5‑iodoacetamidofluorescein)LTARHKILHRLLQEGSPSD
B3: SRC1-1 coregulator peptide (peptide)
peptide: C(5‑iodoacetamidofluorescein)YSQTSHKLVQLLTTTAEQQ
B4: SRC1-3 coregulator peptide (peptide)
peptide: C(5‑iodoacetamidofluorescein)ESKDHQLLRYLLDKDEKDL
B5: SRC2-2 coregulator peptide (peptide)
peptide: CLKEKHKILHRLLQDSSSPV
modifications: 5-iodoacetamidofluorescein coupled to the amino terminal cysteine
notes: also called SRC2-2 peptide
B6: SRC2-1 coregulator peptide (peptide)
peptide: C(5‑iodoacetamidofluorescein)DSKGQTKLLQLLTTKSDQM

One assay deals with T1, hERα-LBD (ligand binding domain of …). In words: fluorescence polarization, labelled peptide 10 nM, hERα-LBD titrated, diethylstilbestrol present.
Conditions: not given
How it is done:
(§1) The concentration of protein varied between 0.001-20 μM in the following way. In 96 well plates, hTRβ-LBD or hERα-LBD was serially diluted from 40 μM to 0.002 μM in binding buffer (50 mM Sodium Phosphate, 150 mM NaCl, pH 7.2, 1 mM DTT, 1 mM EDTA, 0.01% NP40, 10% glycerol), containing 200 μM ligand (T₃, for TRβ, or estradiol, diethylstilbestrol, genistein or tamoxifen for ERα).
(§2) Subsequently 10 μL of diluted protein was added to 10 μL of fluorescent coregulator peptide (20 nM) in 384-well plates yielding final protein concentrations of […] and 10 nM fluorescent peptide concentration. The samples were allowed to equilibriate for 30 minutes. Binding was then measured using fluorescence polarization (excitation λ at 485 nm, emission λ at 530 nm) on an Analyst AD (available from Molecular Devices).
(§3) All experiments were carried out in quadruplicate, with each iteration containing the positive and negative controls, and 10-12 dose points. The data were then fit using Klotz plots to determine IC₅₀ values using nonlinear regression analysis that fits the data to a modification of the model of Heyduk and Lee. (Heyduk et al., Proc. Natl. Acad. Sci., (1990), 1774; Heyduk et al., Nature, (1993), 364, 6437; Heyduk et al., Methods Enzymol., 274, 492. Further analysis was conducted using Hill and Scatchard plots to confirm number and homogeneity of binding sites as discussed hereinbelow.
A general note: In fluorescence polarisation assays a small probe gives low polarisation when free and higher when bound to something large.
On to B1, for which the Kd amounted to 415 nM.
The same measure, in the same setting: then B2, with 302 nM; and B3, with 853 nM.
On the same count and under the same terms, for B4 the value was 1460 nM; for B5, 277 nM; for B6, 896 nM.

The target in a further assay is T2, hTRβ-LBD (ligand binding domain of …). The experiment in a line: fluorescence polarization, hTRβ-LBD titrated, T3 present; Table 3 prints >AL (assay limits) for this pair.
Conditions: not given
The method, then:
as §1, §2, §3
B1: the Kd was found to be 100 µM.
Same read-out and setting: for B3 the value was 100 µM; for B4, 100 µM.
B6 yielded a Kd of 100 µM.

The target of a further assay is T1, hERα-LBD (ligand binding domain of …). In words: fluorescence polarization, labelled peptide 10 nM, hERα-LBD titrated, genistein present.
Conditions: not given
How it is done:
as §1, §2, §3
B1 came in with a Kd of 1030 nM.
Still for that read-out and setting: for B2 the value was 298 nM; for B3, 5000 nM.
Still for that read-out and setting: then B4, with 2550 nM; and B5, with 569 nM.
The same measure, in the same setting: then B6, with 2600 nM.

The next assay addresses T3, hERα-LBD. In words: Fluorescence polarization assay of coregulator peptide binding to ERα-LBD. As to conditions: ERα-LBD in the presence of estradiol; read-out: Dissociation constant for ERα, Estradiol. How it is done:
The peptide library synthesized in Example 1 was assayed with ERα or TRβ receptor. Library members were kept at a constant concentration of 10 nM. A ligand was optionally added to the nuclear hormone receptor.
The receptor ERα-LBD or TRβ-LBD, expressed using reported protocols (for TR see, e.g., Darimont et al., Genes Dev., 12(21):3343-56, (1998); and for ER, see, e.g., Shiau et al., Cell, (1998), 95(7):927-937), was used. The concentration of protein varied between 0.001-20 μM in the following way. In 96 well plates, hTRβ-LBD or hERα-LBD was serially diluted from 40 μM to 0.002 μM in binding buffer (50 mM Sodium Phosphate, 150 mM NaCl, pH 7.2, 1 mM DTT, 1 mM EDTA, 0.01% NP40, 10% glycerol), containing 200 μM ligand (T3, for TRβ, or estradiol, diethylstilbestrol, genistein or tamoxifen for ERα).
as §2
All experiments were carried out in quadruplicate, with each iteration containing the positive and negative controls, and 10-12 dose points. The data were then fit using Klotz plots to determine IC50 values using nonlinear regression analysis that fits the data to a modification of the model of Heyduk and Lee. (Heyduk et al., Proc. Natl. Acad. Sci., (1990), 1774; Heyduk et al., Nature, (1993), 364, 6437; Heyduk et al., Methods Enzymol., 274, 492. Further analysis was conducted using Hill and Scatchard plots to confirm number and homogeneity of binding sites as discussed hereinbelow.
FIG. 6 illustrates direct binding of SRC2-2 to ERα-LBD in the presence of the ligands estradiol, diethylstilbestrol and genistein. […] Measured dissociation constants for binding of members of the SRC peptide library to ERα, in the presence of 3 different ligands, are illustrated in Table 4 wherein the binding units are μM. Table 5 illustrates a comparison of binding constants (μM) for SRC peptides with the TRβ receptor in the presence of thyroid hormone T3, and the ERα receptor in the presence of estradiol.
Regarding `CC(C)C[C@H](NC(=O)[C@H](CCC(N)=O)NC(=O)[C@@H](NC(=O)[C@H](CC(C)C)NC(=O)[C@H](CCCCN)NC(=O)[C@H](Cc1c[nH]cn1)NC(=O)[C@H](CO)NC(=O)[C@@H](NC(=O)[C@H](CCC(N)=O)NC(=O)[C@H](CO)NC(=O)[C@H](Cc1ccc(O)cc1)NC(=O)[C@@H](N)CSCC(=O)Nc1ccc2c(c1)C(=O)OC21c2ccc(O)cc2Oc2cc(O)ccc21)[C@@H](C)O)C(C)C)C(=O)N[C@@H](CC(C)C)C(=O)N[C@H](C(=O)N[C@H](C(=O)N[C@H](C(=O)N[C@@H](C)C(=O)N[C@@H](CCC(=O)O)C(=O)N[C@@H](CCC(N)=O)C(=O)N[C@@H](CCC(N)=O)C(=O)O)[C@@H](C)O)[C@@H](C)O)[C@@H](C)O` [SRC1-1] (H-C(Fluorescein(5-NHCOCH2))YSQTSHKLVQLLTTTAEQQ-OH), the Kd is 1210 nM.
With `CC(C)C[C@H](NC(=O)[C@H](CC(=O)O)NC(=O)[C@H](CCCCN)NC(=O)[C@H](CCC(=O)O)NC(=O)[C@H](CC(=O)O)NC(=O)[C@H](CCCCN)NC(=O)[C@H](CC(=O)O)NC(=O)[C@H](CC(C)C)NC(=O)[C@H](CC(C)C)NC(=O)[C@H](Cc1ccc(O)cc1)NC(=O)[C@H](CCCNC(=N)N)NC(=O)[C@H](CC(C)C)NC(=O)[C@H](CC(C)C)NC(=O)[C@H](CCC(N)=O)NC(=O)[C@H](Cc1c[nH]cn1)NC(=O)[C@H](CC(=O)O)NC(=O)[C@H](CCCCN)NC(=O)[C@H](CO)NC(=O)[C@H](CCC(=O)O)NC(=O)[C@@H](N)CSCC(=O)Nc1ccc2c(c1)C(=O)OC21c2ccc(O)cc2Oc2cc(O)ccc21)C(=O)O` [SRC1-3], the Kd was determined as 2540 nM.
For the molecule `CSCC[C@H](NC(=O)[C@H](CCC(N)=O)NC(=O)[C@H](CC(=O)O)NC(=O)[C@H](CO)NC(=O)[C@H](CCCCN)NC(=O)[C@@H](NC(=O)[C@@H](NC(=O)[C@H](CC(C)C)NC(=O)[C@H](CC(C)C)NC(=O)[C@H](CCC(N)=O)NC(=O)[C@H](CC(C)C)NC(=O)[C@H](CC(C)C)NC(=O)[C@H](CCCCN)NC(=O)[C@@H](NC(=O)[C@H](CCC(N)=O)NC(=O)CNC(=O)[C@H](CCCCN)NC(=O)[C@H](CO)NC(=O)[C@H](CC(=O)O)NC(=O)[C@@H](N)CSCC(=O)Nc1ccc2c(c1)C(=O)OC21c2ccc(O)cc2Oc2cc(O)ccc21)[C@@H](C)O)[C@@H](C)O)[C@@H](C)O)C(=O)O` [SRC2-1] (H-C(Fluorescein(5-NHCOCH2))DSKGQTKLLQLLTTKSDQM-OH), the Kd came out at 927 nM.
On the same count and under the same terms, for `CC[C@H](C)[C@H](NC(=O)[C@H](CCCNC(=N)N)NC(=O)[C@H](Cc1c[nH]cn1)NC(=O)[C@H](CCCCN)NC(=O)[C@H](CCC(=O)O)NC(=O)[C@H](CCC(N)=O)NC(=O)[C@H](CC(C)C)NC(=O)[C@@H](N)CSCC(=O)Nc1ccc2c(c1)C(=O)OC21c2ccc(O)cc2Oc2cc(O)ccc21)C(=O)N[C@@H](CC(C)C)C(=O)N[C@@H](Cc1c[nH]cn1)C(=O)N[C@@H](CCCCN)C(=O)N[C@@H](CC(C)C)C(=O)N[C@@H](CC(C)C)C(=O)N[C@@H](CCC(N)=O)C(=O)N[C@@H](CC(N)=O)C(=O)NCC(=O)N[C@@H](CC(N)=O)C(=O)N[C@@H](CO)C(=O)N1CCC[C@H]1C(=O)N[C@@H](C)C(=O)O` [SRC3-2] (H-C(Fluorescein(5-NHCOCH2))LQEKHRILHKLLQNGNSPA-OH) the value was 363 nM.
